Assay results: patent US20210230238A1 (DEUTSCHES KREBSFORSCHUNGSZENTRUM STIFTUNG DES FFENTLICHEN …, published 2021)

What was measured:
Assay in all cases: SPR, Dectin-1 immobilized, 1:1 model
[1] = target: T1, murine annexin A1 (murine, UniProt P10107 2-346)
T1 construct: Recombinant protein; also called mAnxA1
T1 sequence: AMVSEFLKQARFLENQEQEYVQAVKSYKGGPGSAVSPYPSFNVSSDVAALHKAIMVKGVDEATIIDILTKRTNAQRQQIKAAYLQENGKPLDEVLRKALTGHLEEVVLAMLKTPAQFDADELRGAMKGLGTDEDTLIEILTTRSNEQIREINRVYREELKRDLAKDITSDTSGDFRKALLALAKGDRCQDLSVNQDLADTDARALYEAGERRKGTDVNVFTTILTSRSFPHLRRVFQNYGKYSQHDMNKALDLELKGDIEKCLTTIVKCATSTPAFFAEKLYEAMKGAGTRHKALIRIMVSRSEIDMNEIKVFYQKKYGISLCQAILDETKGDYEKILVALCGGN

[2] = target: T2, murine annexin A5 (murine, UniProt P48036 2-319)
T2 construct: Recombinant protein; also called mAnxA5
T2 sequence: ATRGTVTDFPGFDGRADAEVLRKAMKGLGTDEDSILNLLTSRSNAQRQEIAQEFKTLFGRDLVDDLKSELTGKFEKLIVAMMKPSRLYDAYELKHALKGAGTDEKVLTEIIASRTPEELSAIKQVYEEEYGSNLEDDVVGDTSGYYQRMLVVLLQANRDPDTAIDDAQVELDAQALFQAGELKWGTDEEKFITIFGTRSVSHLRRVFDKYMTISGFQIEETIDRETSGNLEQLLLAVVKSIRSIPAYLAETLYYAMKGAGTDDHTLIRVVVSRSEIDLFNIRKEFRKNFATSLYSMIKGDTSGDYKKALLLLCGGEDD

[3] = target: T3, murine annexin A1 core domain (murine, UniProt P10107 41-344)
T3 construct: Recombinant core domain; also called mAnxA1 core; core annexin A1 domain
T3 sequence: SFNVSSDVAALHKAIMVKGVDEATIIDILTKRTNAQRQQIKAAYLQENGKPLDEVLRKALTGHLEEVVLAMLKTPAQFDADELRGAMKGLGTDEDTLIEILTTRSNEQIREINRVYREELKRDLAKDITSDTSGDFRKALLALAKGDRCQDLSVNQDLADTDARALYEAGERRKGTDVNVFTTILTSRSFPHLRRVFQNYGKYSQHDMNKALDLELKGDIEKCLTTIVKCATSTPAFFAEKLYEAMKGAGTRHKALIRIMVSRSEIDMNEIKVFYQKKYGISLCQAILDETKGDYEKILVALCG

[4] = target: T4, murine annexin A13 (murine, UniProt Q99JG3 2-317)
T4 construct: Recombinant protein; also called mAnxA13
T4 sequence: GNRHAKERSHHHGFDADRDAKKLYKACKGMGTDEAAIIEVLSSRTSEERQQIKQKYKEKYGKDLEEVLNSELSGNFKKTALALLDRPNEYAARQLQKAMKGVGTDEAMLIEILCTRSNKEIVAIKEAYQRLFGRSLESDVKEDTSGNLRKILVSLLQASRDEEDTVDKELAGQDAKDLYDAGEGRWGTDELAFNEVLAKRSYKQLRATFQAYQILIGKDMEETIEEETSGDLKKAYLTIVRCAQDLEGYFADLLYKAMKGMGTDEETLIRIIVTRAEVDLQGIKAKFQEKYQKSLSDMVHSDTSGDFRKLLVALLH

Measured: Kd

B1: Dectin-1 (receptor)
chain: GHNSGRNPEEKDNFLSRNKENHKPTESSLDEKVAPSKASQTTGGFSQPCLPNWIMHGKSCYLFSFSGNSWYGSKRHCSQLGAHLLKIDNSKEFEFIESQTSSHRINAFWIGLSRNQSEGPWFWEDGSAFFPNSFQVRNTAPQESLLHNCVWIHGSEVYNQICNTSSYSICEKEL
~100 nM: all assays above
